Reference: the supplement of paper PMC12636428

System: Saccharomyces cerevisiae
Assay: transcriptional activation domain activity (GFP:mCherry ratio, weighted mean of sorted bins, harmonized to initial dataset scale) (arbitrary fluorescence ratio units); higher = stronger transcriptional activation
Settings: beta-estradiol 1 µM; induction time 4 h
Procedure, shortened: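 After a 1:5 dilution into SC with 1 uM beta-estradiol and 4 hours at 30 °C, yeast diploids carrying a GFP reporter and URA3-integrated barcoded tiles were sorted into 8 bins by GFP:mCherry ratio. The tiles were fused to an estradiol-inducible synthetic transcription factor. Barcodes were sequenced, tiles below 50 reads were discarded, and activation activity was taken as the read-weighted mean of bin median fluorescence, averaged across barcodes and linearly mapped onto the initial dataset scale.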

Sequence	transcriptional activation domain activity
LFFIAVSQLGFVCSYLVFISGNLVNVVDVLSSCAAHLDQKYYIWIPLILVLPL	59900
LFFLLLPLLLHVIRIKSNMASSWVMVPLDFQPRHLIPLVENSHCLRNLQIFWL	71300
LFFLSFFLGLFLFFFSLSLLLVPSSFFFLVFCLFLSFFFILSFFPRFLFFFFF	39700
LFFLSFLFFPFLSFLSFLFLFSFLFFPSFLFFPSLFLFLFSSPFHPIPFLFSS	57800
LFFSSFLYFSLSLGAPGNYFFDVTFFFIPYPPLCIASYSLGFFFFFSFFFFFS	70900
LFFYFFIFLFFYFFILLFYYFIILLFYYLFFFFATVLILILLFFFFFFTYQRT	47600
LFGCVVSNVNGSSYLGLVYVIFMLYEGGLLLAMIKWRISTWIIYYICAFCLSL	59600
LFGLFGPLDLWTFWTFGLFGLFGLFGLFGLFGLGLFGLLDFLDFWPWTFWPWI	57700
LFGPLDFLDFLDFLDFLDFLDFLDFLDFLDLWTFWPWTFWTVGLFGLLDFLTF	46300
LFHSVVSIYRLLFFFSVDHSAGVRFFFCFLFLPSLIFCIAFPISIISGFLVFF	49600
LFHSYFSFLLLFFFFFFFYFLPFFFFLPSLLPHFLLFSFYFPFISPFLSTSFS	58800
LFHVDLDKMYLMMITLCITWIHACLNVYQIHLLSLLNQWNVISSCLGLLVIVL	41900
LFICRYTSDGQFIGNQNGCYNLVPVYDWIKRCVISIFVVFFIAFLPLFLQELC	56900
LFINRLMWLVRSYLTTFFCKSCPGLAKKLIKYVTIQQLPPDVSWDPHFKPRYN	67600
LFLAGILRWGSRIVLVLFLLLLFRLSLLFCLGHLFFAYSLSTLGILLLLMIFF	31600
LFLFFLFVFCAYPFWLVRCFLLALLLSLKDLVQIFLFLITTLCCDISEMWSFV	42800
LFLFIFLVAESYLGFSCWVLYSNVPLYAHVADLAGTKKPFVLPVPFMNVINGG	48000
LFLFLCLFSPPINNPPFSSLIGEFLPLILSSWFYSFLISVWWNRWEKAFSWWL	33800
LFLFLFLIFFSFLKCTFTYIFVPRFRFSLFSHSGPAVSLVYILGLLGYWGVNV	55100
LFLFYACVNMIFWRVFMRISYSCPAHLKFFLTVEKWTELVKMTADAIDWLDAH	47800
LFLKIYMLNPLHMTRFADLLYQGAILNRVFQPYESHLQYLLQWMCDYNLYGCA	65100

Sequence	transcriptional activation domain activity
LFLLFTFPLLGIFDTCFLTSMLFMALCFLFILLLETSFFFFFSLHPNFISWPY	62600
LFLLLMFQGLDIFTPGIRVLHFRICLLLLLLIILLAVPLLFSYIHLTAFTIFY	59100
LFLMVAPYPSLLIVLVNHYLRTLDKPIAFVIHFLVIFTLKFLAFISLIVCVAR	75600
LFLMVWYLLMFSFDKKAIEHAWGLMGLLSKLAQSLSLRKFVHSEILAHHLIGS	80300
LFLSLSSACPSFFPLLPFPFLLAFLITFLAPFPSFLSLLVPHSVPIPLSLPTS	49800
LFPFLFFFFFFLFFSFFLSFFPSSCFLLFSPFFSLVFPFFSLVFFSSFLFFSF	26800
LFRDDEFWGIFASDVGLLVMMGWYGFKTLLWTYILPLMWVNHWIVMITYLHHT	55100
LFSCCCLLRTLGRFLLFIIFFPSLSTCSFFYFLVLFLFSFQTYFLLYLYLLSI	43800
LFSDTSFTIVFSNNVSFTYISFDKKVFFCIFFFLLVYFCQTFSFFLLFFLFFL	44400
LFSFLFPLLLFFSHSFFFYPFLCPLLLPPSLSFYLPLSLSSLSPIPCICFFSD	63200
LFSFSVAYRYFYFFWYVVLERQIRIFRWIAVSIFVWTLVIGFSLYQGLTKQYI	31800
LFSLCFSEICTLFLLLMCQGIDLLDPGVRLINWKVSLWLLLATILVFIPLSYS	43900
LFSPFPPSISFPLSSHSSLPPLFPPLFPPLFPPFLPSLCFPLFPSLPFPPLPL	19500
LFSQLFFPREQAKGVLGWLVWILYMLEKVLFSFSKRRGFFIVCQLEFCVLILT	40300
LFTFRLLRICGPFVARLPSAERLLGWSTLASILGLWWNPRFAQVFRGFTRHIS	61800
LFTHLCLNPQLLRSISSVIFLPRITAPIHVYLYSILIYLQFKMLLLYTLFHIM	77200
LFTSIYYIIILSRSCLFFLFSLPLFQDALFLFVDSVQLYMWGILLFILSSLFF	42900
LFTSLLTSPFLFSLPLLSISASSFLIPPSPFHSLFLPLSLPFPLLYPFPSLFF	49800
LFVFLLFVLFLLVLFMLVLLLLFLPLLLLLPLLLWILWILILRLFFSFLDISD	36900
LFYFIFILFFFTLGDICFRFFYFMGPCFVLFKMVLLIFFSPFSFLHLSLSWVT	43100
LFYFTFSFFVRTAFITLPIYLFWFLYSYFWNYWTSYFPWNDLFLPAWPISRTR	39300

Sequence	transcriptional activation domain activity
LFYLLLLYYYYYCTILYILLHIHYIYIIYLFFLFVYSIYLFFFYILLFIIYYS	52300
LFYNQVSKLLIINCYEASYMCVIYTVGSIGNIGSRCQNLRTGSTFKTLVKYID	54000
LGAIIYIYLCCHGSLTMVDLCTLLALNILNNVDGQCTRILCWWVSFAWCMYPG	58800
LGDQPHIPIPVAFRNIWSFLRVCTLEGFDAKEILPILFALSPGAQLRFIRCRS	70800
LGFIEIVRVCPRFGILFLCMALSFISIVVDLLSVTPVIPIGVINPFWKFAFVF	58100
LGFLYDLIPFFFCCLPFLPFLAPPLKKHLALFQFHPLLHLPLLLPFFFLYFRP	50200
LGGLSRERFFVYVFTSAFLWYFFPGYLFLALSWFSWVTWIWPDDPVVSQLFGY	39500
LGGNSGRATPGGGESRASTRKSKSKGAAKSRSRSPSRGRNRAGSKKKAGAAAT	38700
LGILLLLFDWRVLFNAAQMSCALHESCIALSVMKARNQEWKWWCLGSTYYVYE	44100
LGIRSILETAYRINRLTHMCLQHLLTRCNNLEPLELVGSVLFFLDKKLKRPPE	50300
LGLDSGYLWSGILYNLSVTISLYSLGMFWVCMSKDLQPFRPVPKFLCIKLIIF	53200
LGLDSGYLWSGILYNVSVTVSLYSLGMFWVCMSKDLQPFRPVPKFLCIKLIIF	62400
LGLLLVVSVRIVVTLFSLFFFILLLVALGLIILIIALIVKAIIIVVYFFFFFV	20400
LGLSIWTPWKDVYTRLPKRIYAKLLATAEMEVKYKPKVLVSQIWNAVIISMYR	61600
LGLTNLQLGDEMIGLGAVILIYVIARLILILLPLVALRSLPSGVFVDVNWSRY	57800
LGNISAERHVLNTLSKIPAAQLHDALLVLPFSSLPALFTFLAIWVRKQWNVTL	56000
LGQLLLLLLLLLLLLLLLLLLLLLLLLLLLLLLRRRRRRWWWWRRLLILRIRR	73200
LGSCFLLSLVHPFFLLYYLYLRLLSLCFLYLRFVFFFCSPMSFFILLSIMSFL	60100
LGSIWKPLRNDLLFGTCFFLTRILYHNIMIFTFYYHLDFMFPVYTLLFILPLH	61100
LGSLTFLDNAFQLDLEFLLSSNMTMPSPLDTCFDFLFPFTQMPSLEPCTFPPV	138000
LGTEVVTLEDEIYYIWVRYYSIALLVFDTPNSHLCHSRNNLGQLVAVINVFLF	46300

Sequence	transcriptional activation domain activity
LGTTLLIVVKMLLNWETIDCWGLIYKKMVIGQFMSEMYRIAAGGGKRRVPWAK	60800
LGVFGVALYVLSFFENFDSCHWCFHYDLWSPMAYILMRYSIEAILWSSRLALF	70600
LGVLLLLLLYANVVLLIYHAPTTRKPFDLAFIHAPVRAFMLLPLTILFPYSLF	57300
LGVSAGAGLYPLQDKKREEEEDGVRGFVREGLGDLSCFIGSSVPLTAKKVLEA	75700
LGVVFWCWCGLLGLKIQLYAGSYIKFRSVVIVMLIVLEIFEISINVSVCVIFH	53000
LGYQIVLLLPWTLFCYCWTLCVVIFSLVAMIIPPLGYVCTIFSVTSWRALARV	69800
LHAGAAADDARTGGGGGGGTGQGRAEGRDRGAEPGAVRGGEPHGRGRAEAGAH	8730
LHEQLESLMLRRLKRDVLTSLPTKSERILRVEMSALQTHFYKNILTKNFQALV	74100
LHFCHRLLSRISSLLFCFLFYCLDVLFLSLFLLCFFFPFFFFLFFLFLFQHFA	54800
LHFFLAFIFLLSAYFHVRGRDLTYYGVWPSMVVWGLDRFLRLLRIGVFNFRYI	42000
LHFLSIDITSPFLPLDILPDLWATMWPWIRLIDSYWDSLPTLHEWFPSIQIYT	57500
LHFMYVVAIKDRKAWVGYSAAELCMVGFWNLIVVWLKLLVPWRFFRLWALADG	61900
LHGFDWSEEDDMSDGLPFLKTDPNNNGFFGDGSLLCILRSIGFKPENYTNSNV	50300
LHGSIHEGLCRMLINIFIENLVLKEDVLLALCIQVLFPKEYITKGLMDAIKKD	13900
LHKRLEVTAYITCTRVIQRVVWFLLQGKYRLDYYWEEVWRALLNLLDFISNKI	71300
LHLCLQVTKAYLERFHKFDPADITVCCSSVMFHFACAMKVLYRLLLLDDPGWD	59900
LHLFGLVLVWVSYLLFWVFLLFSFVYPDWLLALFILRIILFLFSFSVILFYFI	47100
LHLFTNIDILKYDYGHIREDHIWVCLMHFTKRSRVVRWLVKSIYRPLLLGGLR	77200
LHLMLQKLCFAATLRIATLPDKHPLHPFVKRVYRYLFLKSHRAPRHNLFEAFQ	55000
LHNRFGAFTPSKTPKSVFVVTYLGRVFITIMFCLVVVIAALTIKYSADSNNLY	9590
